# Assay results taken from publication PMC7064778.
# Where two headings read alike, the source gives them in different places.
# Key:
# [1] = target: PyoS5_(1–315) (P. aeruginosa) (UniProt Q9I4Y4); assay: SPR
# [2] = target: PyoS5_(1–315) (P. aeruginosa) (UniProt Q9I4Y4); assay: SPR; remark: listed apart in the source
substance,measurement,setting,value
TonB1_(109–342) (domain or fragment),Kd,[1],230 nM
same,Kd,[2],241 nM
